Here are results for 2 substances from PMC7948409.

Data set [1] concerns the target F-actin (actin filaments) from rabbit leg and back muscle (UniProt P68135). The data set can be described thus: single-molecule TIRF microscopy; in vitro motility assay under TIRF; HMM (342.8 nM incubation) on TMCS glass; Alexa-488 phalloidin F-actin propelled with 1 mM MgATP; 5 nM Alexa-647 gelsolin; pCa 8.2; 23 °C. Particulars: other: single-molecule TIRF microscopy.

For data set [2], the target named is F-actin (actin filaments) from rabbit leg and back muscle (rabbit) (UniProt P68135). Described as above.
The target is the same in data set [3]. Kind of data set: single-molecule TIRF microscopy; HMM (34.2 nM incubation) adsorbed on TMCS glass; rhodamine phalloidin F-actin (5 nM) held stationary in rigor, no MgATP; 5 nM Alexa-647 gelsolin in solution; no added Ca2+ (pCa > 9); 23 °C; 9 min observation.

“Alexa-647-labeled gelsolin (His-tagged recombinant full-length human cytoplasmic gelsolin)”: the “percent of sliding filaments with bound gelsolin, corrected for the labeling efficiency” value in data set [1] is “approximately 55% of all sliding filaments have bound gelsolin”.
Regarding “Alexa-647-labeled gelsolin (His-tagged recombinant full-length human cytoplasmic gelsolin) (natural protein)”, in data set [2], the gelsolin molecules bound per filament came out at 1 per filament and the percent of HMM-propelled actin filaments with bound labeled gelsolin turned out to be 36.5%. In data set [3], this substance came in with a gelsolin attachments per filament during 9 min of 1.7 per filament.
